In series [1] the target is RNA polymerase beta delta(900-909) beta deletion 900-909 (Escherichia coli) (UniProt P0A7Z4+P0A8V2+P0A8T7+P0A800). Particulars: -sigma70; SD 0.02.
Series [2] concerns the target RNA polymerase sigma70 holoenzyme, beta F906A beta F906A (Escherichia coli) (UniProt P0A7Z4+P0A8V2+P0A8T7+P0A800+P00579). To be noted: +sigma70; SD 0.15.
For series [3], the target named is RNA polymerase beta F906A beta F906A (Escherichia coli) (UniProt P0A7Z4+P0A8V2+P0A8T7+P0A800). To be noted: -sigma70; SD 0.14.
Series [4] addresses RNA polymerase sigma70 holoenzyme, beta L902P beta L902P (Escherichia coli) (UniProt P0A7Z4+P0A8V2+P0A8T7+P0A800+P00579). To be noted: +sigma70; SD 0.09.
Series [5] concerns the target RNA polymerase beta L902P beta L902P (Escherichia coli) (UniProt P0A7Z4+P0A8V2+P0A8T7+P0A800). To be noted: -sigma70; SD 0.05.
Series [6] has as its target RNA polymerase beta L901Q beta L901Q (Escherichia coli) (UniProt P0A7Z4+P0A8V2+P0A8T7+P0A800). Particulars: -sigma70; SD 0.05.
In series [7] the target is RNA polymerase sigma70 holoenzyme, wild-type (Escherichia coli) (UniProt P0A7Z4+P0A8V2+P0A8T7+P0A800+P00579). Particulars: +sigma70; SD 0.1.
Series [8] addresses RNA polymerase sigma70 holoenzyme, beta delta(900-909) beta deletion 900-909 (Escherichia coli) (UniProt P0A7Z4+P0A8V2+P0A8T7+P0A800+P00579). Particulars: +sigma70; SD 0.05.
Series [9] concerns the target RNA polymerase beta L901R beta L901R (Escherichia coli) (UniProt P0A7Z4+P0A8V2+P0A8T7+P0A800). To be noted: -sigma70; SD 0.05.
The target in series [10] is RNA polymerase sigma70 holoenzyme, beta L901Q beta L901Q (Escherichia coli) (UniProt P0A7Z4+P0A8V2+P0A8T7+P0A800+P00579). Particulars: +sigma70; SD 0.07.
Series [11] concerns the target RNA polymerase core, wild-type (alpha2 beta beta' omega) (Escherichia coli) (UniProt P0A7Z4+P0A8V2+P0A8T7+P0A800). Particulars: [3H]UMP incorporation, -sigma70; SD 0.05.
The target in series [12] is RNA polymerase sigma70 holoenzyme, beta I905N beta I905N (Escherichia coli) (UniProt P0A7Z4+P0A8V2+P0A8T7+P0A800+P00579). Particulars: +sigma70; SD 0.02.
Series [13] has as its target RNA polymerase sigma70 holoenzyme, beta L901R beta L901R (Escherichia coli) (UniProt P0A7Z4+P0A8V2+P0A8T7+P0A800+P00579). To be noted: +sigma70; SD 0.07.
Series [14] has as its target RNA polymerase beta I905N beta I905N (Escherichia coli) (UniProt P0A7Z4+P0A8V2+P0A8T7+P0A800). To be noted: -sigma70; SD 0.04.
Series [15] has as its target σ^70 lacking region 1 and region 4 (UniProt P00579). The series can be described thus: trypsin protection of the β flap-tip by σ70 lacking regions 1 and 4; wild-type RNAP without σ: 9.2 ± 0.1.
For series [16], the target named is σ^70 lacking region 1 (UniProt P00579). The series can be described thus: trypsin protection of the β flap-tip by σ70 lacking region 1; wild-type RNAP without σ: 9.2 ± 0.1.
In series [17] the target is σ^70 lacking region 4 (UniProt P00579). The series can be described thus: trypsin protection of the β flap-tip by σ70 lacking region 4; wild-type RNAP without σ: 9.2 ± 0.1.
Series [18] has as its target T1, RNA polymerase core, wild-type (alpha2 beta beta' omega) (Escherichia coli, UniProt P0A7Z4;P0A8V2;P0A8T7;P0A800 P0A7Z4:1-329,P0A8V2:1-1342,P0A8T7:1-1407,P0A800:2-91). Briefly: 5-iodoU UV crosslinking in paused TEC. Particulars: tags: N-terminal His6 on beta; beta' C-terminal intein-CBD removed by DTT; chain copies: 2,1,1,1; label: 32P; hairpin.
Series [19] concerns the target RNA polymerase beta F906A (Escherichia coli, UniProt P0A7Z4;P0A8V2;P0A8T7;P0A800 P0A7Z4:1-329,P0A8V2:1-1342,P0A8T7:1-1407,P0A800:2-91, beta F906A). The series can be described thus: 4-thioU crosslink retained while 5-iodoU crosslink lost; hairpin-flap interaction not altered. To be noted: tags: N-terminal His6 on beta, beta' intein-CBD removed by DTT, chain copies: 2,1,1,1, label: 32P.

Series [20] concerns the target T1, RNA polymerase core, wild-type (alpha2 …). The series can be described thus: UV crosslinking (5-iodoU) in paused TEC; mapped to beta 904-908. To be noted: tags: N-terminal His6 on beta; beta' C-terminal intein-CBD removed by DTT; chain copies: 2,1,1,1; label: 32P; hairpin. How it is done:
(§1) First, paused TECs containing either wild-type or βK909C mutant RNAPs and a wild-type pause hairpin loop derivatized with 5-iodoU and [α-³²P]CMP were prepared (FIG. 1A). The 5-iodoU crosslink was mapped by cleaving the crosslinked β subunit either to completion with trypsin or partially with 2-nitro-5-thiobenzoic-acid (NTCB), and by separating the cleavage products on SDS polyacrylamide gels (8-16% gradient; FIG. 6A). Trypsin cleavage was performed prior to disruption of the TEC, which results in cleavage within β only at R903 and K909 (Boruhkov et al., 1991). […] NTCB cleaves at Cys residues, which are present at seven positions in wild-type β and eight in βK909C.

The target in series [21] is RNA polymerase beta K909C (Escherichia coli, UniProt P0A7Z4;P0A8V2;P0A8T7;P0A800 P0A7Z4:1-329,P0A8V2:1-1342,P0A8T7:1-1407,P0A800:2-91, beta K909C). Briefly: UV crosslinking in paused TEC; crosslink maps between 903 and 909. To be noted: tags: N-terminal His6 on beta; chain copies: 2,1,1,1; label: 32P; hairpin. On the procedure:
as §1

These results are taken from patent US20080193921, “Methods to identify agents that bind the flap-tip helix of RNA polymerase” (Wisconsin Alumni Research Foundation, published 2008).

As to poly(dA dT), the binding signal (relative to wild-type core) in series [1] is 0.95; in series [2], 2.1; in series [3] it was 1; in series [4], 1.5; in series [5] it was 1.2; in series [6] it was 1.2. Also, the binding signal (relative to wild-type core) in series [7] was 2; in [8] it was 0.9; in series [9], 1.2; in series [10] it was 1.4; in series [11], 1; in [12] it was 1.3. Besides, the binding signal (relative to wild-type core) was 1.5 in series [13] and 1 in series [14].

Turning to “wild-type Escherichia coli RNA polymerase (core enzyme, α, β, β′ subunits)”, the results for the β cleavage rate + σ^70 in series [15], in series [16] and in series [17] were 0.011 s⁻¹, 0.0062 s⁻¹ and 0.011 s⁻¹, respectively.

Take CCUGCUUCGGCAGGCGAUGUGUGCUG (ssRNA, 5-iodoU in hairpin loop) [his pause RNA, tetraloop hairpin]: in [18], the binding result is “binds”.

CCUGACUAGUCUUUCAGG (ssRNA, 5-iodoU or 4-thioU in hairpin loop) [his pause RNA hairpin, wild-type]: the binding result in series [19], in [20] and in [21] was “binds” in each case.
